Test results reported in patent US10562935B2, “Stapled peptides and uses thereof” (London Health Sciences Centre Research Inc., priority 2015, dated 2020).
Where a SMILES comes first, the peptide text is derived from it. Bridges are numbered along the chain shown (N, C = ends). The star is where a group is joined. Biotin = O=C1N[C@H]2[C@H](CS[C@H]2CCCCC(=O)*)N1; AEEA = NCCOCCOCC(=O)O

Experiment: not given
Settings: biotinylated peptide, HA coated ELISA plate

Going from “Biotin-AEEA-(cyclo-6,10)-VSKLR[EQLVK]RKQN-NH2 [Compound 287]” to “{Biotin-AEEA}-VSKLRSQLVKRKQN-NH2 [Compound 284]”, the “peptide concentration required for equivalent interaction with HA” value rises from 80 ng/mL to 10000 ng/mL (120-fold).

Experiment: circular dichroism
Settings: Milli-Q water; pH ns; ns °C; 0.5 mM

Compared with `CC(C)[C@H](N)C(=O)N[C@@H](CO)C(=O)N[C@@H](CCCCN)C(=O)N[C@H]1CCC(=O)NCCCC[C@@H](C(=O)N[C@H](C(=O)N[C@@H](CCCCN)C(=O)N[C@@H](CCCNC(=N)N)C(=O)N[C@@H](CCCCN)C(=O)N[C@@H](CCC(N)=O)C(=O)N[C@@H](CC(N)=O)C(N)=O)C(C)C)NC(=O)[C@H](CCC(N)=O)NC(=O)[C@H](CO)NC(=O)[C@H](CCCNC(=N)N)NC1=O` (H-VSKERSQKVKRKQN-NH2; lactam 4-8), `CC(C)C[C@@H]1NC(=O)[C@H](CCC(N)=O)NC(=O)[C@H](CO)NC(=O)[C@@H](NC(=O)[C@H](CC(C)C)NC(=O)[C@H](CCCCN)NC(=O)[C@H](CO)NC(=O)[C@@H](N)C(C)C)CCC(=O)NCCCC[C@@H](C(=O)N[C@@H](CCCCN)C(=O)N[C@@H](CCCNC(=N)N)C(=O)N[C@@H](CCCCN)C(=O)N[C@@H](CCC(N)=O)C(=O)N[C@@H](CC(N)=O)C(N)=O)NC1=O` (H-VSKLESQLKKRKQN-NH2; lactam 5-9) is lower in helicity: -2260 MRE222 for the first, -4400 MRE222 for the second.

First: CC(C)C[C@H](NC(=O)[C@H](CCCCN)NC(=O)[C@H](CO)NC(=O)[C@@H](N)C(C)C)C(=O)N[C@@H](CCCNC(=N)N)C(=O)N[C@H]1CCC(=O)NCCCC[C@@H](C(=O)N[C@@H](CCCNC(=N)N)C(=O)N[C@@H](CCCCN)C(=O)N[C@@H](CCC(N)=O)C(=O)N[C@@H](CC(N)=O)C(N)=O)NC(=O)[C@H](C(C)C)NC(=O)[C@H](CC(C)C)NC(=O)[C@H](CCC(N)=O)NC1=O (H-VSKLREQLVKRKQN-NH2; lactam 6-10)
Second: CC(C)C[C@H](NC(=O)[C@H](CCCCN)NC(=O)[C@H](CO)NC(=O)[C@@H](N)C(C)C)C(=O)N[C@@H](CCCNC(=N)N)C(=O)N[C@@H](CO)C(=O)N[C@H]1CCC(=O)NCCCC[C@@H](C(=O)N[C@@H](CCCCN)C(=O)N[C@@H](CCC(N)=O)C(=O)N[C@@H](CC(N)=O)C(N)=O)NC(=O)[C@H](CCCCN)NC(=O)[C@H](C(C)C)NC(=O)[C@H](CC(C)C)NC1=O (H-VSKLRSELVKKKQN-NH2; lactam 7-11)
The helicity of the first is lower: -4400 MRE222 for the first, -1570 MRE222 for the second.

Same assay, conditions: water (methods paragraph says 0.1 M phosphate; tables say water); pH ns; 20 °C; 0.5 mM

Compared with `CC(=O)N[C@H](C(=O)N[C@@H](CO)C(=O)N[C@@H](CCCCN)C(=O)N[C@@H](CC(C)C)C(=O)N[C@H]1CCC(=O)NCCCC[C@@H](C(=O)N[C@@H](CCCCN)C(=O)N[C@@H](CCCNC(=N)N)C(=O)N[C@@H](CCCCN)C(=O)N[C@@H](CCC(N)=O)C(=O)N[C@@H](CC(N)=O)C(N)=O)NC(=O)[C@H](CC(C)C)NC(=O)[C@H](CCC(N)=O)NC(=O)[C@H](CO)NC1=O)C(C)C` (Ac-VSKLESQLKKRKQN-NH2; lactam 5-9), `CC(=O)N[C@H](C(=O)N[C@@H](CO)C(=O)N[C@@H](CCCCN)C(=O)N[C@@H](CC(C)C)C(=O)N[C@H]1CCCCNC(=O)CC[C@@H](C(=O)N[C@@H](CCCCN)C(=O)N[C@@H](CCCNC(=N)N)C(=O)N[C@@H](CCCCN)C(=O)N[C@@H](CCC(N)=O)C(=O)N[C@@H](CC(N)=O)C(N)=O)NC(=O)[C@H](CC(C)C)NC(=O)[C@H](CCC(N)=O)NC(=O)[C@H](CO)NC1=O)C(C)C` (Ac-VSKLKSQLEKRKQN-NH2; lactam 5-9) is higher in helicity: -6450 MRE222 for the first, -974 MRE222 for the second.

Compared with `CC(=O)N[C@H](C(=O)N[C@@H](CO)C(=O)N[C@@H](CCCCN)C(=O)N[C@@H](CC(C)C)C(=O)N[C@@H](CCCNC(=N)N)C(=O)N[C@H]1CCC(=O)NCCCC[C@@H](C(=O)N[C@@H](CCCNC(=N)N)C(=O)N[C@@H](CCCCN)C(=O)N[C@@H](CCC(N)=O)C(=O)N[C@@H](CC(N)=O)C(N)=O)NC(=O)[C@H](C(C)C)NC(=O)[C@H](CC(C)C)NC(=O)[C@H](CCC(N)=O)NC1=O)C(C)C` (Ac-VSKLREQLVKRKQN-NH2; lactam 6-10), `CC(=O)N[C@H](C(=O)N[C@@H](CO)C(=O)N[C@@H](CCCCN)C(=O)N[C@@H](CC(C)C)C(=O)N[C@@H](CCCNC(=N)N)C(=O)N[C@H]1CCCCNC(=O)CC[C@@H](C(=O)N[C@@H](CCCNC(=N)N)C(=O)N[C@@H](CCCCN)C(=O)N[C@@H](CCC(N)=O)C(=O)N[C@@H](CC(N)=O)C(N)=O)NC(=O)[C@H](C(C)C)NC(=O)[C@H](CC(C)C)NC(=O)[C@H](CCC(N)=O)NC1=O)C(C)C` (Ac-VSKLRKQLVERKQN-NH2; lactam 6-10) is higher in helicity: -4850 MRE222 for the first, -1980 MRE222 for the second.

Ac-VSKLRSQLVKRKQN-NH2 gave a helicity of -1100 MRE222.
